Measurements published in patent US20210371529A1 (Innovent, published 2021).

T1: human LAG-3 overexpressed on HEK293 cells (human, UniProt P18627 23-525)
T1 construct: whole, on cells; also called 293-hLAG-3 cells; hLAG-3 on the cell surface
T1 sequence (looked up): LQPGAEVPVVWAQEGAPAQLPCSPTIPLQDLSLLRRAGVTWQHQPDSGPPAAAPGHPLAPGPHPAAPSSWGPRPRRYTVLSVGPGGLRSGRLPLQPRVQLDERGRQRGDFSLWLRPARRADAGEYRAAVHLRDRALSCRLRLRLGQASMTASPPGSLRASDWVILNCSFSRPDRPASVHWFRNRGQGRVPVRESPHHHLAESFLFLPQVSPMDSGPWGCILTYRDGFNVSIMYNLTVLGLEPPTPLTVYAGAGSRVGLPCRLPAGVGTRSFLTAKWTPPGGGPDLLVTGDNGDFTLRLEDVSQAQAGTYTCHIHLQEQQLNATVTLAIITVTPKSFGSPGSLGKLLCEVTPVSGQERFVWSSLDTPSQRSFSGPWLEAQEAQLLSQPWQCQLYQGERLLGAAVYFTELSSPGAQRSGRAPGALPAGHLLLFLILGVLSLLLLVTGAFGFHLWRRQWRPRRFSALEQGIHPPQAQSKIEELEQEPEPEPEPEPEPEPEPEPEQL

T2: LAG-3 on activated human CD4+ T cells (human, UniProt P18627 23-525)
T2 construct: whole, on cells; also called endogenous LAG-3
T2 sequence (looked up): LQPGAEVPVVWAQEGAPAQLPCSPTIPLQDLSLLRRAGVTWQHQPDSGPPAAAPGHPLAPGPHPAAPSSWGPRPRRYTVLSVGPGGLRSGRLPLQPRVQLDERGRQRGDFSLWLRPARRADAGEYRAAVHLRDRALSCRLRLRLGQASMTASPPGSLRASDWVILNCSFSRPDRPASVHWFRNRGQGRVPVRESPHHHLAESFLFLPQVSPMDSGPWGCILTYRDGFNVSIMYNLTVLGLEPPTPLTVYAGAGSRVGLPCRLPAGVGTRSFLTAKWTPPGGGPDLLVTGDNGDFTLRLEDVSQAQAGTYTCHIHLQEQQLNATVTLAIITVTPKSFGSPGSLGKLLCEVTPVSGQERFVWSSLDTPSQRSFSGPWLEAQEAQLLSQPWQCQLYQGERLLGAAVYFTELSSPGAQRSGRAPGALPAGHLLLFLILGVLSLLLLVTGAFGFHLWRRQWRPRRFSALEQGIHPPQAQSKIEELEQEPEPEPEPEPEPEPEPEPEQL

T3: human LAG-3-His (human, UniProt P18627 23-450)
T3 construct: Bought antigen (ArcoBiosystems), 100 nM in solution in the ForteBio assay; also called human LAG-3 antigen (ArcoBiosystems); hLAG-3; not shown: His tag
T3 sequence (looked up): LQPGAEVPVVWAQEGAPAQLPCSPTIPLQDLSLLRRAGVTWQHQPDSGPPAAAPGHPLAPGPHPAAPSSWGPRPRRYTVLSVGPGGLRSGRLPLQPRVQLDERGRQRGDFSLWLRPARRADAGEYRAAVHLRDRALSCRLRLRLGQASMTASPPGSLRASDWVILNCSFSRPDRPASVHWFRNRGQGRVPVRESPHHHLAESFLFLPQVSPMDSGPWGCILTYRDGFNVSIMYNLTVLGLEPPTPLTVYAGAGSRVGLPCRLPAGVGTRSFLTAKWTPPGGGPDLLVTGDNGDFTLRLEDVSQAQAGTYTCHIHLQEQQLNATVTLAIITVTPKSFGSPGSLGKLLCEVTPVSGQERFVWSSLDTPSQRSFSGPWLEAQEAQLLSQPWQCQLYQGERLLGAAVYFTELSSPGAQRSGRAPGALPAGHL


Experiments:
[1] = molecular target: T1, human LAG-3 overexpressed on HEK293 …; experiment: flow cytometry on 293-hLAG-3 cells, MFI curve
Protocol: The binding of the 4 exemplary antibodies of the invention described above to human LAG-3 was measured in a flow cytometry-based assay. 293 cells (293-hLAG-3 cells) over-expressing human LAG-3 were generated by transfecting human embryonic kidney 293 cells (Invitrogen) with pCHO1.0 vectors (Invitrogen) carrying human LAG-3 cDNA (Sino Biological) cloned into multiple cloning sites (MCSs). 293-hLAG-3 cells (0.2×10⁶ cells) were mixed with different concentrations of antibodies (ADI-26789, ADI-26869 and reference 25F7) prepared as described above (the antibodies were serially three-fold diluted from a maximum concentration of 500 nM in PBS containing 0.1% bovine serum albumin (BSA) until the 8th concentration). The cells were incubated on ice for 30 min. The cells were then washed at least twice prior to addition of a secondary antibody (a PE-labeled goat anti-human IgG antibody, Southern Biotech, final concentration […]) diluted in 1:100, and incubated on ice (protected from light) for 30 minutes. The cells were washed at least twice and analyzed by flow cytometry. The flow cytometry assay was performed on an Accuri C6 system (BD Biosciences), and a concentration-dependent curve was fitted with GraphPad according to the mean fluorescence intensity (MFI).

[2] = molecular target: T2, LAG-3 on activated human CD4+ T cells; experiment: flow cytometry on activated human CD4+ T cells, MFI curve
Protocol: CD4+ T cell isolation: This was performed according to the ‘Untouched CD4+ T cell isolation’ kit instructions (11346D, Invitrogen). PBMCs were left for 2 h before the cell suspension was pipetted into a 15-mL centrifugation tube. The cells were centrifuged at 200 g for 10 min, and the precipitate was resuspended with 500 μL of a separating medium, 100 μL of AB type serum and 100 μL of purified antibody. The mixture was incubated for 20 min at 4° C., and washed once with the separating medium. 500 μL of a Bead Buffer (Invitrogen) was added for an incubation of 15 min, and the beads were then removed by a magnetic field. The mixture was washed once with a T cell culture medium, and resuspended with 8 mL of a culture medium. The resulting mixture was then incubated at 37° C. in presence of 6% CO₂.
According to the ratio of magnetic beads to CD4⁺ T cells equivalent to 1:1, anti-CD3/CD28 magnetic beads (Gibco) were added to CD4⁺ T cells for stimulation for 3 days. The cell density was adjusted to 1×10⁶/mL. The cells were loaded into a first well, 150 μL/well, and into other wells, 100 μL/well. […] The samples were mixed well. […] The mixture was resuspended in 60 μL of PBS and analyzed by flow cytometry. The flow cytometry was performed on an Accuri C6 system (BD Biosciences), and a concentration-dependent curve was fitted with GraphPad according to the mean fluorescence intensity (MFI).

[3] = molecular target: T3, human LAG-3-His; experiment: BLI (ForteBio), antibody on AHQ tip, human LAG-3-His 100 nM in solution
Protocol: (§1) The purified antibody obtained as described above was loaded on-line onto an AHQ sensor (ForteBio) for ForteBio affinity assay. The sensor with the loaded antibody was then exposed to 100 nM of a human LAG-3 antigen (ArcoBiosystems) for 5 minutes before transferring the sensor to the assay buffer for dissociation for 5 minutes for dissociation rate measurement. Kinetic analysis was performed using a 1:1 binding model.

[4] = molecular target: T3, human LAG-3-His; experiment: BLI (ForteBio), antibody on AHQ tip, human LAG-3-His 100 nM in solution, univalent
Protocol: as §1

EC50 [1] [nM] | EC50 [2] [nM] | koff [3] [s⁻¹] | kon [3] [M⁻¹ s⁻¹] | Kd [4] [nM] | Binder
0.501 | 0.013 | 0.0002 | 330000 | 0.606 | ADI-31851 (antibody, human IgG4 S228P, kappa, F234A L235A, V domains shown, IgG4 heavy chain constant region with kappa light chain; expressed in HEK293 cells) VH: QLQLQESGPGLVKPSETLSLTCTVSGGSISSPDYYWGWIRQPPGKGLEWIGSIVYSGYTYYNPSLKSRVTISVDTSKNQFSLKLSSVTAADTAVYYCARVRTWDQSFDIWGQGTMVTVSS VL: DIQMTQSPSSLSASVGDRVTITCQAGQDISNYLNWYQQKPGKAPKLLIYDASNLETGVPSRFSGSGSGTDFTFTISSLQPEDIATYYCQQVLELPPWTFGGGTKVEIKR
0.433 | 0.011 | 0.0002 | 322000 | 0.622 | ADI-31853 (antibody, human IgG4 S228P, kappa, F234A L235A, V domains shown, IgG4 heavy chain constant region with kappa light chain; expressed in HEK293 cells) VH: QLQLQESGPGLVKPSETLSLTCTVSGGSIYSESYYWGWIRQPPGKGLEWIGSIVYSGYTYYNPSLKSRVTISVDTSKNQFSLKLSSVTAADTAVYYCARVRTWDAAFDIWGQGTMVTVSS VL: DIQMTQSPSSLSASVGDRVTITCQASQDISNYLNWYQQKPGKAPKLLIYDASNLETGVPSRFSGSGSGTDFTFTISSLQPEDIATYYCQQVLELPPWTFGGGTKVEIKR
